Our source for the binding result and Kd values is patent publication US20230080224A1 (AGENCY FOR SCIENCE TECHNOLOGY AND RESEARCH, published 2023).

Residue numbers refer to the chain shown, from its start.

Experiment [1] has as its target T1, ALPI (screening and SPR/ELISA protein) (UniProt P09923 20-503, limits assumed).
T1 sequence (looked up): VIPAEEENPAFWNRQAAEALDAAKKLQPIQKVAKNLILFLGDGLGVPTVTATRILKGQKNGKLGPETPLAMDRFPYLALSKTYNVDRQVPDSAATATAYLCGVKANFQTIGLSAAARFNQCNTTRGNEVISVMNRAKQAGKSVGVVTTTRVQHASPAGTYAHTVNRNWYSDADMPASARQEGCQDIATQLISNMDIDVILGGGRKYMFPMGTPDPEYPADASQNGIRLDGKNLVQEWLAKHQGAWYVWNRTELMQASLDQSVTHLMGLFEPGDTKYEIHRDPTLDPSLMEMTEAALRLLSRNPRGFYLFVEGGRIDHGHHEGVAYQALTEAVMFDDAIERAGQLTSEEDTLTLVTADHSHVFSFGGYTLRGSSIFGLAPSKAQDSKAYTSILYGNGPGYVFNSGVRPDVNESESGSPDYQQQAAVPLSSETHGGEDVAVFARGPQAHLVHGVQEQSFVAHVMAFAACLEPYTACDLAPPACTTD
Description: screen of rabbit B-cell clones by ELISA and FACS. An excerpt:
(§1) Specific clones were screened and identified by ELISA and high throughput flow cytometry (FIG. 3). Rabbit kidney cells were transfected with either truncated (for ELISA screen) or full-length (for FACS screen) ALPI and ALPPL2.
On the technique in general: In an ELISA, binding on a coated surface is turned into a signal by an enzyme label.

Experiment [2] concerns the target T2, human ALPPL2 (recombinant protein) (human, UniProt P10696 20-503, limits assumed).
T2 construct: biotinylated where captured on streptavidin
Description: screen of rabbit B-cell clones by ELISA and FACS.
From the text: as §1

Experiment [3] deals with T3, human ALPPL2 (recombinant protein) (human, UniProt P10696 20-503).
T3 chain: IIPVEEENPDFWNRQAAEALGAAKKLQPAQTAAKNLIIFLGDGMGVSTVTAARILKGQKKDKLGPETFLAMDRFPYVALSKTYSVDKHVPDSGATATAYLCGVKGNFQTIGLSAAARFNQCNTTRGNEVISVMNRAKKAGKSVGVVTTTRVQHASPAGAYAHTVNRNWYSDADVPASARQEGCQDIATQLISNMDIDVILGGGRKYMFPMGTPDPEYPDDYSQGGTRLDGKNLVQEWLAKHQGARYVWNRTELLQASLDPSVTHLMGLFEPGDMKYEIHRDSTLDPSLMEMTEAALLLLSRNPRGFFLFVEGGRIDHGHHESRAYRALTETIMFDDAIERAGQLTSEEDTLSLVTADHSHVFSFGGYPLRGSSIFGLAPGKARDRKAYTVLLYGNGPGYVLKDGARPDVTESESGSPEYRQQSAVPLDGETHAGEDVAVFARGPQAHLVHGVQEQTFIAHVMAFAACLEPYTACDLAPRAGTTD
Description: BLI; single concentration. (In general: Biolayer interferometry detects binding as a change in optical thickness at a sensor tip.)

B1: AB1C13 (antibody, V domains shown)
VH: QEQLEESGGDLVKPEGSLTLTCTASGFSFSWICWVRQAPGKGLEWIACIYAGSSAKTYYASWAKGRFTISKASSTTVTLQMTSLTAADTATYFCARASNYYRYGVAGYADYTGYFNLWGPGTLVTVSS
VL: FELTQTPASVEAAVGGTVTIKCQASQSISSWLAWYHQKPGQRPKLLIYGTSTLASGVPSRFKGSGSGTEFTLTISDLECADAATYYCQNYGGSSSGDAFGGGTEVVVK
notes: Rabbit antibody cloned from a single B cell
Turning to B1, the binding result in experiment [1] is recorded as “no binding”.

B2: AB2C128 (antibody, V domains shown)
VH: QSLEESGGDLVKPGASLTLTCTASGFSFSSSYWIYWVRQAPGKGLEWIACIYTASRGSIYYASWTKGRFTISKTSSTTVTLQMTSLTAADTATYFCARGPDYTYGYIGDALTRLDLWGQGTLVTVSS
VL: AVLTQTPSPVSAAVGGTVSISCQSSQSVYDNNWLAWYQQKAGQPPKLLIYAASTLSSGVPSRFKGSGSGIEFTLTISDVQCDDAATYYCAGGYSSTSDIEDNTFGGGTEVVVK
notes: as for B1
As to B2, the binding result was “binds” in experiment [2] and “no binding” in experiment [1].

B3: AB2C135 (antibody, V domains shown)
VH: B2 VH with Y35C, G57D, T65A, D101Y, T103S, G105A
VL: B2 VL with A41P, A51E, T54K, S56A, I70T, E71Q, D78G, A85S, T96S
notes: as for B1
B3: the binding result in experiment [2] was “binds”; in experiment [1], “no binding”.

B4: AB1C21 (antibody, V domains shown)
VH: QQQLVESGGGLVKPGASLTLTCKASGFSFSSGYDMCWVRQAPGKGLEWIACIYTGDGSTYYASWARGRFTISKTSSTTVTLQMTSLTAADTATYFCAREDVSSGDYTFNLWGPGTLVTVSS
VL: YDMTQTPASVEVTVGGTVTIKCQASEDIYSGLAWYQQKPGQRPKLLIYKASNLASGVPSRFSGSGSGTEFTLTISGVECADAATYYCQQGVTYSNVDNTFGGGTEVVVK
notes: as for B1
The Kd is the equilibrium constant for the complex coming apart. Regarding B4, the binding result is listed as “binds” in experiment [2] and “no binding” in experiment [1]. For the same molecule, in experiment [3], the Kd came out at 1.4 nM.

B5: AB1C15 (antibody, V domains shown)
VH: QSLEESGGDLVKPGASLTLTCTASGFSFSSSYYMCWVRQAPGKGLEWIACIYTTYGGTWYASWAKGRFTISKTSSTTVTLQMTSLTDADTATYFCARSSISDVTYFNLWGPGTLVTVSS
VL: DIVMTQTPASVEAAVGGTVTIKCQASQSISNYLAWYQQKPGQPPELLIYRASTLESGVPSRFKGSGSGTGFTLTISDLECADAATYYCQSYYDNNNYAFGGGTEVVVK
notes: as for B1
For the molecule B5, the results for the binding result in experiment [2] and in experiment [1] were “binds” and “no binding”, respectively. Besides, the dissociation constant Kd in experiment [3] was found to be 0.6 nM.

B6: AB1C32 (antibody, V domains shown)
VH: QEQLEESGGDLVKPGGTLTLTCKASGIDFSSDYYMCWVRQAPGKGLEWIACIYTGSSDDTYYASWAKGRFTISKTSSPTVALQMTSLTAADTATYFCARGGYGGKDLWGPGTLVTVSS
VL: VVMTQTPASVEAAVGGTVTIKCQASQSIGSLLAWYQQKPGQPPNLLIYWASTLASGVPSRFKGSGSGTEFTLTISDLECDDAATYYCQCTYGSSGSSSYLNAFGGGTEVVVK
notes: as for B1
Take B6: the binding result is “binds” in experiment [2] and “no binding” in experiment [1].

B7: AB2C103 (antibody, V domains shown)
VH: QSLEESGGDLVKPGASLTLTCTASGFDFSSYYWICWVRQAPGKGLEWIACIYGGSSGSTYYATWAKGRFTISETSSTTVTLQMTSLTAADMATYFCARSLYTWRYADYAASTLNLWGPGTLVTVSS
VL: AVLTQTPSPVSAAVGGTVSISCQSSQSVYNVNLLAWYQQKPGQPPKLLIYETSKLESGVPSRFSGSGSGTQFTLTISDVQCDDAATYYCAGGYSSSKDNSFGGGTEVVVK
notes: as for B1
Consider B7, for which the values for the binding result in experiment [2] and in experiment [1] were “binds” and “no binding”, respectively.

B8: AB1C35 (antibody, V domains shown)
VH: QEQLKESGGDLVKPGASLTLTCTASGFTLSTYWVCWVRQAPGKGLEWIGCIDTVSSGDTYFASWAKGRFTGSKTSSTTVTLQMTSLTAADTATYFCARRTGSRWTLWGPGTLVTVSS
VL: QVLTQTPSSVSAGVGGTVTINCQASESVYNNNYLSWYQQKPGQPPKLLIYQASTLASGVPSRFKGSGSGTQFTLTISDVQCDDAATYYCLGAFVSNGWYFAFGGGTEVVVK
notes: as for B1
Regarding B8, the binding result was “binds” in experiment [2] and “no binding” in experiment [1]. Moreover, in experiment [3], the Kd came to 4.1 nM.

B9: AB1C17 (antibody, V domains shown)
VH: B8 VH with R103G
VL: LVMTQTPSPVSAAVGGTVTISCQSSQSVYNNNYLAWFQQNPGQPPKLLIYWASKLASGVPSRFKGSGSGTQFTLTISDVQCDDAATYYCLGAYVSNGWYFAFGGGTEVVVK
notes: as for B1
As to B9, the binding result in experiment [2] is “binds”; in experiment [1], “no binding”.

B10: AB1C28 (antibody, V domains shown)
VH: B8 VH with R103G
VL: B9 VL with T106I
notes: as for B1
For the molecule B10, the binding result in experiment [2] was “binds”; in experiment [1], “no binding”.

B11: AB1C34 (antibody, V domains shown)
VH: QSLEESGGDLVKPGASLTLTCTASGFDFSSNGMCWVRQAPGKGLEWIACIYVDSSDSTYYASWVNGRFTISKTSSTTVTLQMTSLTAADTATYFCARGYGYVGSAMDLWGQGTLVTVSS
VL: NIVMTQTPSPVSGAVGGTVTIKCQASQSISNELAWFQQKPGQRPKLLIYGASTLESGVPSRFSGSGSGTEFTLTISDLECADAATYYCQSAYYSSSSSYANTFGGGTEVVVK
notes: as for B1
As for B11, the binding result is recorded as “binds” in experiment [2] and “no binding” in experiment [1].

B12: AB1C11 (antibody, V domains shown)
VH: QSLEESGGDLVKPGASLTLTCKASGFTISSIWICWVRQAPGKGLEWIACIYAGSDGGSYYASWARGRFTISKTSSTTVTLQMTSLTAADTATYFCARASNSWQYGYAGYGNYKDYFNLWGPGTLVTVSS
VL: FELTQTPSSVEAVVGGTVTINCQASESISNLLAWYQQKSGQPPKVLIYKASALPSGVSSRFKGSGSGTEFTLTISDLECADAATYYCQSYYGSSDTGNTFGGGTEVVVK
notes: as for B1
In the case of B12, the binding result is reported as “binds” in experiment [2] and “no binding” in experiment [1].

B13: AB1C18 (antibody, V domains shown)
VH: QSLEESGGDLVKPGASLTLTCTASGFSFSSYWTCWVRQAPGKGLEWLGCTDGGSSGDTYYATWAKGRVAISKTSSTTVTLQVTSLTAADTATYFCARNLITWDLWGPGTLVTVSS
VL: IVMTQTPSSKSVPVGDTVTINCQASESVYNNNQLSWFQQKPGQPPKLLIYWASKLASGVPSRFKGSGSGTQFTLTISDVVCDDAATYYCAGYKSSITDGNAFGGGTEVVVK
notes: as for B1
Turning to B13, the figures for the binding result in experiment [2] and in experiment [1] were “binds” and “no binding”, respectively. In experiment [3], the Kd was found to be 1.4 nM.

B14: AB1C14 (antibody, V domains shown)
VH: QSLEESGGDLVKPGASLTLTCTASGFSFSSNYWICWVRQAPGKGLEWIACIATGSSGSTYYASWAKGRFTISKTSSTTVTLQMTSLTAADTATYFCARGEYTYGYVEYAIVTQYYFDLWGPGTLVTVSS
VL: FEMTQTPSSVSAAVGGTVTINCQASQNIYSNLAWYQQKPGQRPKLLIYGASNLESGVPSRFKGSGSGTEYTLTISDLECDDAATYYCQSADYIGSAYNAFGGGTEVVVK
notes: as for B1
With B14, the values for the binding result in experiment [2] and in experiment [1] were “binds” and “no binding”, respectively.

B15: AB1C23 (antibody, V domains shown)
VH: QSLEESGGDLVKPGASLTLTCTASGFSFSSTYYMCWVRQAPGKGLEWIACIYTGSTGSTYYASWAKGRFTGSKTSSTTVTLQMTSLTAADTATYFCARGDYTYAYAGGAHVTNYYFDLWGPGTLVTVSS
VL: LVMTQTPSSVSAAVGGTVTINCQASQNIYSNLAWYQQKPGQRPKLLIFGASNLESGVPSRFKGSGSGTEFTLTISDLECDDAATYYCQTADYSSSTDWGAFGGGTEVVVK
notes: as for B1
Consider B15, for which the binding result is listed as “binds” in experiment [2] and “no binding” in experiment [1].
